Laboratory results published in patent US20250326842A1 (BEIGENE SWITZERLAND, published 2025).

Assays:
FcγRI = FcγRI (human, UniProt P12314 16-288, limits assumed); experiment: Biacore, KD from kinetic constants (koff/kon)
Protocol: K¹ (M) values were calculated from the ratio of the kinetic constants as KD=koff/kₒₙ. K2 (M) values were determined by the analyte concentration at which half of the ligands are occupied at equilibrium.

[1] = target: T1, human PVRIG recombinant protein (human, UniProt Q6DKI7 41-171); experiment: competition ELISA, BGA384 against biotinylated human PVRL2 (Fc-Avi-tag) on coated human PVRIG
T1 construct: also called human PVRIG protein; recombinant human antigen PVRIG
T1 sequence: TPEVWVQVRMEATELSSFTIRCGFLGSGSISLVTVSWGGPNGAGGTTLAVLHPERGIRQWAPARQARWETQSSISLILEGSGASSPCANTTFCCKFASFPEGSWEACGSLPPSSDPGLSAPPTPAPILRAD

[2] = target: T2, Cyno PVRIG expressed on HEK293 cells (cynomolgus monkey); experiment: flow cytometry on HEK293 cells expressing cyno PVRIG, anti-hFc-647 detection [panel B]
T2 construct: also called native Cyno PVRIG
T2 chain: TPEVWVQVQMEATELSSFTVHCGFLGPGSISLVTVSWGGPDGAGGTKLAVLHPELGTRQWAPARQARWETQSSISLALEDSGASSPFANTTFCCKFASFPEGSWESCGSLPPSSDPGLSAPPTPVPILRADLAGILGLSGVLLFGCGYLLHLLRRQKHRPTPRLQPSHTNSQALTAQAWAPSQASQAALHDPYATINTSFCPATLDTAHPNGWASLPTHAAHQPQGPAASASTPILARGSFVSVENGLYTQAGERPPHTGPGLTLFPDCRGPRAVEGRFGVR
Protocol: To evaluate the binding activity of anti-PVRIG antibodies to native Cyno PVRIG on living cells. HEK293 cells were engineered to express Cyno PVRIG. HEK293 cells transfected with Cyno PVRIG were seeded in 96 well plates and were incubated with a serial dilution of anti-PVRIG antibodies. […] EC50 values for dose dependent binding to Cyno native PVRIG were determined by fitting the dose response data to the four-parameter logistic model with GraphPad Prism™.

[3] = target: T3, human PVRIG expressed on cells (human, UniProt Q6DKI7 41-326); experiment: cell-based or functional assay
T3 sequence: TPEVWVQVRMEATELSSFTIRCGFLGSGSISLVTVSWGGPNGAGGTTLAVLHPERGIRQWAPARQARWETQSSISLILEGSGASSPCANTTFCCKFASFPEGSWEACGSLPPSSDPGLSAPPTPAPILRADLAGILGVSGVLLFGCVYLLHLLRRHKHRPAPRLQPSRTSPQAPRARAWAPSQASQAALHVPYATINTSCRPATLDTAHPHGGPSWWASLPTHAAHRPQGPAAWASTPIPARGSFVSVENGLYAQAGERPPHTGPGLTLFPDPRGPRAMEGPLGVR

Human C1q = Human C1q (human, UniProt P02745 23-245; P02746 28-253; P02747 29-245); experiment: ELISA: plate coated with increasing amounts of antibody, human C1q at 8 µg/mL, anti-C1q antibody detection
Protocol: Human C1q (100 uL total: 8 μg/mL) was incubated in the antibody-coated wells. Bound C1q was detected by a specific anti-C1q monoclonal antibody. ELISA readings at 450 nm were plotted on the y-axis.

FcγRI, sequence (P12314 16-288 limits assumed): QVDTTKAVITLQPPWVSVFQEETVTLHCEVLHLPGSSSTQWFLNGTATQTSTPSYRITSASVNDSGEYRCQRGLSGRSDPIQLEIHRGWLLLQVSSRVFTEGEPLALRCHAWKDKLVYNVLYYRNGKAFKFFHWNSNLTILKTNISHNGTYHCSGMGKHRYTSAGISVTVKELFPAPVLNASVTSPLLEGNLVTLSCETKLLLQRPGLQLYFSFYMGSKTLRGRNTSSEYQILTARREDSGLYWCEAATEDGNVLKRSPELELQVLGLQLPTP
Human C1q, sequence (P02745 23-245 limits assumed, chain 1 of 3): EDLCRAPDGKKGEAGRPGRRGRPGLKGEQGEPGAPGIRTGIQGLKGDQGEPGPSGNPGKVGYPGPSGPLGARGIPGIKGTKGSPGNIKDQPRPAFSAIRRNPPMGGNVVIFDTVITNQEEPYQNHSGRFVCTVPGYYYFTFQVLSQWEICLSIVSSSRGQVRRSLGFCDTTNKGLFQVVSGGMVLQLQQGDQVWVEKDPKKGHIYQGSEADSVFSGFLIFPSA
Human C1q, sequence (P02746 28-253 limits assumed, chain 2 of 3): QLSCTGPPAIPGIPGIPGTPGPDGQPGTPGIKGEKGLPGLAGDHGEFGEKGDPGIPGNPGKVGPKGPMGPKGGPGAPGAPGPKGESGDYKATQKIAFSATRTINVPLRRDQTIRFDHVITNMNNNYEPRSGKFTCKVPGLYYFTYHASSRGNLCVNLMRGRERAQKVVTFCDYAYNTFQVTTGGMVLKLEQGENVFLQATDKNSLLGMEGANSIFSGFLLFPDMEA
Human C1q, sequence (P02747 29-245 limits assumed, chain 3 of 3): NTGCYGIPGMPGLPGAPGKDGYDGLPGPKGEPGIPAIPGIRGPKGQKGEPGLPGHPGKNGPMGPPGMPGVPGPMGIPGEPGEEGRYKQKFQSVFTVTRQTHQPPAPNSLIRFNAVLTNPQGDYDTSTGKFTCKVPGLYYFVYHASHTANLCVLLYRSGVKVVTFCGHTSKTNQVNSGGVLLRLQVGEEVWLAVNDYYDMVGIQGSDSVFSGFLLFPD

B1: BGA384 (antibody, human IgG1, kappa)
heavy: not shown
light: QIVLTQSPATLSLSPGERATLSCSAGSSVNYMHWFQQKPGQAPRLLIYSTSNLASGVPARFSGSGSGTDYTLTISSLEPEDFAVYYCQQRSSLPFTFGQGTKLEIKRTVAAPSVFIFPPSDEQLKSGTASVVCLLNNFYPREAKVQWKVDNALQSGNSQESVTEQDSKDSTYSLSSTLTLSKADYEKHKVYACEVTHQGLSSPVTKSFNRGEC
notes: also called BGB-A538; BGA384 WT
Kd (FcγRI): 3.26 nM
IC50 [1]: 0.383 µg/mL
EC50 (read off the curve) [2]: ~0.05 µg/mL
EC50 of promoter-driven luminescence, JK-NFAT-HuPVRIG with A549/OS8-H cells [3]: 0.0377 µg/mL
EC50 (read off the curve) (Human C1q): ~2 µg/mL
